The values below come from the supplement of paper PMC5998384.

Data set [1] has as its system HeLa Kyoto. The data set can be described thus: solubility in G1/S (NP-40 vs SDS abundance) (log2 ratio); higher = more soluble. Particulars: cell cycle stage: G1/S.
Data set [2] has as its system HeLa Kyoto. The data set can be described thus: melting temperature (median over replicates), in situ; higher = more thermally stable.
In data set [3] the test system is HeLa Kyoto. The data set can be described thus: solubility change mitosis vs G1/S (difference of NP-40 vs SDS log2 ratios) (log2 ratio difference); higher = more soluble in mitosis.
The test system of data set [4] is HeLa Kyoto. The data set can be described thus: thermal stability score vs G1/S (z-score of summed log2 fold changes over temperatures); higher = more thermally stable than in G1/S.
Where [5] appears, read: cell cycle stage: early G1 (4.5 h after nocodazole release).
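Throughout, for melting temperature (median over replicates), in situ: HeLa Kyoto cells synchronized by double thymidine or nocodazole block, proteins quantified by TMT10plex mass spectrometry, three independent biological replicates.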
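Throughout, for solubility change mitosis vs G1/S (difference of NP-40 vs SDS log2 ratios): synchronized HeLa Kyoto cells (double thymidine block for G1/S, nocodazole release for mitosis), protein amounts in NP-40 versus SDS lysates quantified by mass spectrometry, three biological replicates.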
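Throughout, for solubility in G1/S (NP-40 vs SDS abundance): HeLa Kyoto cells arrested at G1/S by double thymidine block, proteins quantified by TMT10plex mass spectrometry in mild NP-40 versus SDS extracts, three biological replicates.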
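Throughout, for thermal stability score vs G1/S (z-score of summed log2 fold changes over temperatures): synchronized HeLa Kyoto cells, proteins quantified by TMT10plex mass spectrometry, three biological replicates, mitosis taken 0.5 h after nocodazole release, G1/S directly after double thymidine block.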

Take “MPSAKQRGSKGGHGAASPSEKGAHPSGGADDVAKKPPPAPQQPPPPPAPHPQQHPQQHPQNQAHGKGGHRGGGGGGGKSSSSSSASAAAAAAAASSSASCSRRLGRALNFLFYLALVAAAAFSGWCVHHVLEEVQQVRRSHQDFSRQREELGQGLQGVEQKVQSLQATFGTFESILRSSQHKQDLTEKAVKQGESEVSRISEVLQKLQNEILKDLSDGIHVVKDARERDFTSLENTVEERLTELTKSINDNIAIFTEVQKRSQKEINDMKAKVASLEESEGNKQDLKALKEAVKEIQTSAKSREWDMEALRSTLQTMESDIYTEVRELVSLKQEQQAFKEAADTERLALQALTEKLLRSEESVSRLPEEIRRLEEELRQLKSDSHGPKEDGGFRHSEAFEALQQKSQGLDSRLQHVEDGVLSMQVASARQTESLESLLSKSQEHEQRLAALQGRLEGLGSSEADQDGLASTVRSLGETQLVLYGDVEELKRSVGELPSTVESLQKVQEQVHTLLSQDQAQAARLPPQDFLDRLSSLDNLKASVSQVEADLKMLRTAVDSLVAYSVKIETNENNLESAKGLLDDLRNDLDRLFVKVEKIHEKV [CKAP4]”: the “solubility in G1/S (log2)” value in data set [1] worked out at 0.635. The melting temperature in data set [2] (cell cycle stage: G1/S) was 52 °C; in data set [2] (cell cycle stage: mitosis), 52.4 °C. In data set [3], the “solubility change mitosis (log2)” value was found to be 0.148. Also, the thermal stability score came out at 5.49 in data set [4] (setting [5]) and 6.55 in data set [4] (cell cycle stage: mitosis).
For “MSQGDSNPAAIPHAAEDIQGDDRWMSQHNRFVLDCKDKEPDVLFVGDSMVQLMQQYEIWRELFSPLHALNFGIGGDTTRHVLWRLKNGELENIKPKVIVVWVGTNNHENTAEEVAGGIEAIVQLINTRQPQAKIIVLGLLPRGEKPNPLRQKNAKVNQLLKVSLPKLANVQLLDTDGGFVHSDGAISCHDMFDFLHLTGGGYAKICKPLHELIMQLLEETPEEKQTTIA [PAFAH1B2]”, the “solubility in G1/S (log2)” value in data set [1] was found to be 0.628. For the same sequence, the results for the melting temperature in data set [2] (cell cycle stage: G1/S) and in data set [2] (cell cycle stage: mitosis) were 49.5 °C and 51 °C, respectively. In data set [3], the “solubility change mitosis (log2)” value was -0.079. In addition, the thermal stability score in data set [4] (setting [5]) is -0.13; in data set [4] (cell cycle stage: mitosis) it was -0.102.
For “MSRYLRPPNTSLFVRNVADDTRSEDLRREFGRYGPIVDVYVPLDFYTRRPRGFAYVQFEDVRDAEDALHNLDRKWICGRQIEIQFAQGDRKTPNQMKAKEGRNVYSSSRYDDYDRYRRSRSRSYERRRSRSRSFDYNYRRSYSPRNSRPTGRPRRSRSHSDNDRFKHRNRSFSRSKSNSRSRSKSQPKKEMKAKSRSRSASHTKTRGTSKTDSKTHYKSGSRYEKESRKKEPPRSKSQSRSQSRSRSKSRSRSWTSPKSSGH [SRSF10]”, the “solubility in G1/S (log2)” value in data set [1] was -0.696. The melting temperature came to 49.7 °C in data set [2] (cell cycle stage: G1/S) and 50.2 °C in data set [2] (cell cycle stage: mitosis). Moreover, the “solubility change mitosis (log2)” value in data set [3] turned out to be 0.534. In addition, the thermal stability score was 0.817 in data set [4] (setting [5]) and -0.653 in data set [4] (cell cycle stage: mitosis).
Consider “MAAPPGEYFSVGSQVSCRTCQEQRLQGEVVAFDYQSKMLALKCPSSSGKPNHADILLINLQYVSEVEIINDRTETPPPLASLNVSKLASKARTEKEEKLSQAYAISAGVSLEGQQLFQTIHKTIKDCKWQEKNIVVMEEVVITPPYQVENCKGKEGSALSHVRKIVEKHFRDVESQKILQRSQAQQPQKEAALSS [LSM12]”, for which, in data set [1], the “solubility in G1/S (log2)” value is -0.264. The melting temperature in data set [2] (cell cycle stage: G1/S) and in data set [2] (cell cycle stage: mitosis) was 52.3 °C in each case. Besides, in data set [3], the “solubility change mitosis (log2)” value was found to be 0.105. For the same sequence, the thermal stability score in data set [4] (setting [5]) is -0.688; in data set [4] (cell cycle stage: mitosis) it was -0.784.
For the sequence “MAAAVPQRAWTVEQLRSEQLPKKDIIKFLQEHGSDSFLAEHKLLGNIKNVAKTANKDHLVTAYNHLFETKRFKGTESISKVSEQVKNVKLNEDKPKETKSEETLDEGPPKYTKSVLKKGDKTNFPKKGDVVHCWYTGTLQDGTVFDTNIQTSAKKKKNAKPLSFKVGVGKVIRGWDEALLTMSKGEKARLEIEPEWAYGKKGQPDAKIPPNAKLTFEVELVDID [FKBP3]”, the “solubility in G1/S (log2)” value in data set [1] turned out to be 0.57. The values for the melting temperature in data set [2] (cell cycle stage: G1/S) and in data set [2] (cell cycle stage: mitosis) were 54.2 °C and 54.4 °C, respectively. Further, the “solubility change mitosis (log2)” value in data set [3] came to 0.226. For the same sequence, the thermal stability score in data set [4] (setting [5]) is 0.0401; in data set [4] (cell cycle stage: mitosis), -2.71.
For the sequence “MDGAAGPGDGPAREALQSLSQRLRVQEQEMELVKAALAEALRLLRLQVPPSSLQGSGTPAPPGDSLAAPPGLPPTCTPSLVSRGTQTETEVELKSSPGPPGLSNGPPAPQGASEEPSGTQSEGGGSSSSGAGSPGPPGILRPLQPPQRADTPRRNSSSSSSPSERPRQKLSRKAISSANLLVRSGSTESRGGKDPLSSPGGPGSRRSNYNLEGISVKMFLRGRPITMYIPSGIRSLEELPSGPPPETLSLDWVYGYRGRDSRSNLFVLRSGEVVYFIACVVVLYRPGGGPGGPGGGGQRHYRGHTDCVRCLAVHPDGVRVASGQTAGVDKDGKPLQPVVHIWDSETLLKLQEIGLGAFERGVGALAFSAADQGAFLCVVDDSNEHMLSVWDCSRGMKLAEIKSTNDSVLAVGFNPRDSSCIVTSGKSHVHFWNWSGGVGVPGNGTLTRKQGVFGKYKKPKFIPCFVFLPDGDILTGDSEGNILTWGRSPSDSKTPGRGGAKETYGIVAQAHAHEGSIFALCLRRDGTVLSGGGRDRRLVQWGPGLVALQEAEIPEHFGAVRAIAEGLGSELLVGTTKNALLRGDLAQGFSPVIQGHTDELWGLCTHPSQNRFLTCGHDRQLCLWDGESHALAWSIDLKETGLCADFHPSGAVVAVGLNTGRWLVLDTETREIVSDVIDGNEQLSVVRYSPDGLYLAIGSHDNVIYIYSVSSDGAKSSRFGRCMGHSSFITHLDWSKDGNFIMSNSGDYEILYWDVAGGCKQLKNRYESRDREWATYTCVLGFHVYGVWPDGSDGTDINSLCRSHNERVVAVADDFCKVHLFQYPCARAKAPSRMYGGHGSHVTSVRFTHDDSHLVSLGGKDASIFQWRVLGAGGAGPAPATPSRTPSLSPASSLDV [EML3]”, in data set [1], the “solubility in G1/S (log2)” value is 0.0248. The melting temperature is 51.6 °C in data set [2] (cell cycle stage: G1/S) and 52 °C in data set [2] (cell cycle stage: mitosis). In addition, the “solubility change mitosis (log2)” value in data set [3] was -0.215. Also, the values for the thermal stability score in data set [4] (setting [5]) and in data set [4] (cell cycle stage: mitosis) were -0.497 and 0.0727, respectively.
